For one substance, stoichiometry N results are on record in article PMC3046976.

The target of the test is polysialate O-acetyltransferase NeuO, protein variant with four N-terminal RLKTQDS heptads (Escherichia coli K1 (prophage CUS-3)). The experiment in a line: crystal structure; apo-enzyme, space group P2_1, three monomers in the asymmetric unit, 1.7 Å; sitting drop at 20°C, 0.1 M Tris pH 7.2, 0.45 M glycine, 0.2 M NH4NO3, 7% PEG4000.

In general, stoichiometry N refers to the number of molecules, sites or subunits per partner or assembly. The substance “polysialate O-acetyltransferase NeuO, protein variant with four N-terminal RLKTQDS heptads (enzyme)” yielded a stoichiometry N of 3.
